Data reported in patent US20150330991A1, “METHOD FOR IMPROVING TARGET AFFINITY OF PEPTIDE” (GWANGJU INSTITUTE OF SCIENCE AND TECHNOLOGY, priority 2012, published 2015).

Columns and labels:
[1] = target: vascular endothelial growth factor receptor 1 (VEGFR1) (UniProt P17948); experiment: SPR (Biacore X), VEGFR1 immobilised on a CM5 chip per paragraph 186; four sensorgrams with fitted curves
[2] = target: vascular endothelial growth factor receptor 1 (VEGFR1) (UniProt P17948); experiment: SPR (Biacore X), VEGFR1 immobilised on a CM5 chip per paragraph 186; compared with the linear peptide CQRPPR at 1 mM

Sequence of vascular endothelial growth factor receptor 1 (VEGFR1) (P17948 27-756 limits assumed): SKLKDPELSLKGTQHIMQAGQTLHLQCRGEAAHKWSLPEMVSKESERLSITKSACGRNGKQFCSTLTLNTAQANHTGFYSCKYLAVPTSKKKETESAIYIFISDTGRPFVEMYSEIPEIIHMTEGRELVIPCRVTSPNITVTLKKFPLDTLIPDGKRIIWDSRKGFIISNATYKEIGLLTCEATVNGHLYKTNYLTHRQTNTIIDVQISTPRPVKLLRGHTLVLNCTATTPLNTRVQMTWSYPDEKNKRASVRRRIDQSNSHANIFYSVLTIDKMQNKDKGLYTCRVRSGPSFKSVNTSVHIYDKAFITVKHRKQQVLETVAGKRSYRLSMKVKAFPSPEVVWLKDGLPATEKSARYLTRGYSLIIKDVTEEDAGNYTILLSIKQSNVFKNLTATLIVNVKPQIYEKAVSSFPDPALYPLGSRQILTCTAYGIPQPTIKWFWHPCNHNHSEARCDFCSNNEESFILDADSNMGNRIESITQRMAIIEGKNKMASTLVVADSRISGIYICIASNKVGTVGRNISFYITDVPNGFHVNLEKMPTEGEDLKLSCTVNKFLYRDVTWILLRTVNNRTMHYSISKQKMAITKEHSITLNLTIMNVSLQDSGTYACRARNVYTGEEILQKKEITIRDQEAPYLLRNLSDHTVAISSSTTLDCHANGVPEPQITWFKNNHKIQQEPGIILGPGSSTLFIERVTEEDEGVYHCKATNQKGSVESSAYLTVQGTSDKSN

Kd [1]: 0.212 µM | fold increase in affinity [2]: > 10000 fold
Substance: bipodal peptide drawn as CQRPPR-GGG-[W--W hairpin]-G-RIPKNR
